Source: paper PMC10980815, “Cell surface patching via CXCR4-targeted nanothreads for cancer metastasis inhibition” (Nature Communications, 2024)
Ends that are not written are not given here. HPMA copolymer = HPMA copolymer made by RAFT copolymerization of HPMA with N-(3-aminopropyl)methacrylamide (APMA), bearing maleimide groups for grafting

Assays:
[1] = Hydrodynamic size / size distribution by dynamic light scattering; type: physicochemical; conditions: Malvern Zetasizer Nano ZS90, mean ± SD
Protocol: (§1) The average molecular weight (Mw) and polydispersity (PDI) of the HPMA copolymer conjugates were determined by gel permeation chromatography (GPC) on an AKTA purifier equipment with a Superose 6 10/300 GL analytical column (GE Healthcare, USA) and a differential refraction detector (KNAUER, 2300, Germany). Hydrodynamic sizes and zeta potentials were determined using a Malvern Zetasizer Nano ZS90 equipment (Malvern Instruments Ltd, Malvern, UK). The contents of BS, CM1, and CM2 were determined using a bicinchoninic acid (BCA) protein assay. The PS concentration was determined by ultraviolet-visible (UV-Vis) spectroscopy at its characteristic absorbance peak (660 nm).
To investigate the coiled-coil assembly, varying CM1-to-CM2 ratios (3:1, 1:1, and 1:3) of P-BS-CM1 and P-CM2 were mixed in 10 mM PBS (pH 7.4) at 25 °C for 10 min. The total polymer concentration was kept constant at 10 mg/mL. Circular dichroism spectra, size distribution, and rheological properties of P-BS-CM1, P-CM2, and their mixture were measured. The surface morphology of P-BS-CM1 and the mixture (P-BS-CM1 + P-CM2) was observed using scanning electron microscopy. Additionally, for the FRET assay, CM1-to-CM2 equimolar of P-BS-CM1-Cy5 and P-CM2-Cy3 were mixed in 10 mM PBS (pH 7.4) at 25 °C for 10 min. Fluorescent spectra of P-BS-CM1-Cy5, P-CM2-Cy3, and the mixture (P-BS-CM1-Cy5+P-CM2-Cy3) were recorded at the Cy3 excitation wavelength of 550 nm.

ζ-potential (Zetasizer) = type: physicochemical; conditions: Malvern Zetasizer Nano ZS90; mean ± SD
Protocol: as §1

[2] = tested on: orthotopic 4T1 breast tumors; experiment: Tumor accumulation of Cy5-labeled nanothreads (IVIS imaging, excised tumors); type: in vivo, female BALB/c mice
Protocol: For in vitro studies, 4T1 cells (2 × 10^5 cells) were seeded on coverslips (NEST Biotechnology) for attachment. Subsequently, the cells were treated with i) Cy5-labeled P-CM1 (P-CM1-Cy5) for 1 h, followed by incubation in cell culture medium for an additional 1 h, ii) Cy5-labeled P-BS-CM1 (P-BS-CM1-Cy5) for 1 h, followed by incubation in cell culture medium for an additional 1 h, or iii) P-BS-CM1-Cy5 for 1 h, followed by Cy3-labeled P-CM2 (P-CM2-Cy3) for an additional 1 h (5 nM Cy5 and 5 nM Cy3 equivalence), respectively. Following the treatments, cells were washed three times with PBS, stained with DAPI, and observed using a confocal microscope. For in vivo studies, 4T1 cells (1 × 10^6) were injected into the third mammary fat pad of female BALB/c mice (6–8 weeks, 20 ± 2 g) (n = 3) on day 0 to establish orthotopic breast tumor models. For investigation of CXCR4 binding, mice on day 14 (tumor volume, ~200 mm^3) were intravenously injected with P-CM1-Cy5 or P-BS-CM1-Cy5 (equivalent Cy5 dose, 5 nmol/mouse, n = 3). Whole-body living imaging at 24, 48, and 72 h post-administration as well as excised tumors at the end point, were captured using the IVIS optical imaging system (IVIS Lumina Series III, PerkinElmer, USA). For the analysis of CM1/CM2 biorecognition in the second step, 4T1 tumor-bearing mice (tumor volume, ~200 mm^3) were intravenously injected with Cy5 labeled P-CM2 (P-CM2-Cy5) alone on day 15, or pre-injected P-BS-CM1 on day 14 followed by intravenous injection of P-CM2-Cy5 on day 15 (equivalent Cy5 dose, 5 nmol/mouse, n = 3). Whole-body living imaging at 24 and 48 h post-P-CM2-Cy5 administration, as well as excised tumors at the end point, were captured using the IVIS optical imaging system. For further investigation, mice (tumor volume, ~200 mm^3) were intravenously injected with P-BS-CM1-Cy5 on day 14 and then P-CM2-Cy3 on day 15 (5 nmol of Cy5 and 5 nmol of Cy3 per mouse). One day later, tumor tissues were collected for frozen sectioning and further observation by confocal microscope.
(§2) Three distinct delivery approaches were implemented in 4T1 tumor-bearing female BALB/c mice (6–8-week, tumor volume~200 mm^3, n = 5 per group). i) Consecutive delivery: Nanothread-1 and nanothread-2 were sequentially administered via intravenously injection with a 24 h time interval. ii) Simultaneous delivery: Nanothread-1 and Nanothread-2 were concurrently administered through two tail veins of one mouse. iii) Post-assembly delivery: Nanothread-1 and Nanothread-2 were pre-mixed before intravenous injection (5 nmol of Cy5 and 5 nmol of Cy3 per mouse). For the tumor accumulation study, whole-body living imaging was conducted at 24, 48, and 72 h post-administration of Cy5-labeled Nanothread. Additionally, excised tumors were imaged at the end point using the IVIS optical imaging system. For the pharmacokinetics study, blood samples were extracted at predetermined time points post-administration of fluorescence-labeled Nanothread, n = 5 per group. The fluorescent intensity in blood samples was measured with a microplate reader at the wavelengths of Cy5 (Ex: 630 nm, Em: 670 nm) and Cy3 (Ex: 530 nm, Em: 570 nm). Pharmacokinetic parameters, including half-life (T1/2z), area under curve (AUC), and mean residence time (MRT), were calculated using DAS 2.0 software.

[3] = Pharmacokinetics upon consecutive, simultaneous and post-assembly delivery; type: in vivo, female BALB/c mice; conditions: for T1/2z: blood fluorescence, mean ± SD, n = 5; for AUC0-t / AUC0-∞ / MRT0-t / MRT0-∞: same
Protocol: as §2

With “P-CM2-Cy5: Cy5 labeled P-CM2 (C(HPMA copolymer)YGGEVSALEKEVSALEKKNSALEKEVSALEKEVSALEK; also: Cy5 label on conjugate, position not given here)” the Size [1] was 19.8±0.7 nm, the ζ-potential (ζ-potential (Zetasizer)) was -8.94±0.45 mV and the “tumor accumulation of Nanothread-2 (Fig. 5b, excised tumors)” value (“tumor accumulation” for short) ([2]; P-CM2-Cy5 i.v. 5 nmol Cy5/mouse 24 h after saline or P-BS-CM1, IVIS at end point (48 h), animal 1 of 3) was 1.72. The “tumor accumulation” value ([2]; P-CM2-Cy5 i.v. 5 nmol Cy5/mouse 24 h after saline or P-BS-CM1, IVIS at end point (48 h), animal 1 of 3, listed as G3) was 0.962, the “tumor accumulation” value ([2]; same, animal 2 of 3) was 1.74 and the “tumor accumulation” value ([2]; same, animal 2 of 3, listed as G3) was 0.787. The “tumor accumulation” value ([2]; same, animal 3 of 3) was 1.49, the “tumor accumulation” value ([2]; same, animal 3 of 3, listed as G3) was 0.495 and the T1/2z ([3]; Consecutive delivery (24 h interval) with unlabeled partner nanothread, i.v., 4T1 tumor-bearing mice, 5 nmol Cy5/mouse, DAS 2.0) was 20.232 ± 6.5 h. The AUC0-t ([3]; Consecutive delivery) was 2807.529 ± 561.373 ng·h/mL, the “AUC0-∞” value ([3]; Consecutive delivery) was 2999.46 ± 668.451 ng·h/mL and the MRT0-t ([3]; Consecutive delivery) was 15.196 ± 1.358 h. The “MRT0-∞” value ([3]; Consecutive delivery) was 21.117 ± 3.236 h, the T1/2z ([3]; Post-assembly delivery (pre-mixed with unlabeled partner nanothread before i.v. injection)) was 14.142 ± 3.54 h and the AUC0-t ([3]; Post-assembly delivery) was 1356.51 ± 241.624 ng·h/mL. For the same molecule, the “AUC0-∞” value ([3]; Post-assembly delivery) was 1374.981 ± 237.509 ng·h/mL, the MRT0-t ([3]; Post-assembly delivery) was 8.789 ± 0.154 h and the “MRT0-∞” value ([3]; Post-assembly delivery) was 10.384 ± 0.829 h. For the same molecule, the T1/2z ([3]; Simultaneous delivery (two tail veins, 0 h) with unlabeled partner nanothread, i.v.) was 17.583 ± 4.307 h, the AUC0-t ([3]; Simultaneous delivery) was 1339.808 ± 201.879 ng·h/mL and the “AUC0-∞” value ([3]; Simultaneous delivery) was 1385.53 ± 238.655 ng·h/mL. The MRT0-t ([3]; Simultaneous delivery) was 9.919 ± 0.611 h and the “MRT0-∞” value ([3]; Simultaneous delivery) was 12.694 ± 2.736 h.

“P-CM2: HPMA copolymer-CM2 conjugate, ~12 CM2 grafts per polymer (C(HPMA copolymer)YGGEVSALEKEVSALEKKNSALEKEVSALEKEVSALEK; also: CM2 N-terminal cysteine joined to a maleimide of the HPMA copolymer backbone, ~12 per polymer)” gave a Size [1] of 19.2±0.7 nm and a ζ-potential (ζ-potential (Zetasizer)) of -8.73±0.34 mV.

“P-PS-CM2: HPMA backbone grafted with CM2 and chlorin e6 photosensitizer (C(HPMA copolymer)YGGEVSALEKEVSALEKKNSALEKEVSALEKEVSALEK; also: chlorin e6 photosensitizer on polymer)” gave a Size [1] of 25.8±1.2 nm and a ζ-potential (ζ-potential (Zetasizer)) of -11.21±1.24 mV.

B1: P-BS-CM1: linear HPMA polymer backbone grafted with CXCR4 binding sequence (BS) and coiled motif CM1 (conjugate)
chain 1: LGASWHRPDKCCLGYQKRPLPA
chain 2: C(HPMA copolymer)YGGKVSALKEKVSALKEEVSANKEKVSALKEKVSALKE
modifications: not fully specified (some residues); also: BS cysteines (Cys11, Cys12) joined to maleimides of the HPMA copolymer backbone, ~6 per polymer, CM1 N-terminal cysteine joined to a maleimide of the HPMA copolymer backbone, ~4 per polymer
Molecule B1 has a Size [1] of 17.5±2.1 nm and a ζ-potential (ζ-potential (Zetasizer)) of -5.67±0.79 mV.
